Assay results published in the supplement of paper PMC9112550, “Optimization of the antimicrobial peptide Bac7 by deep mutational scanning” (BMC Biology, 2022).

What follows are sequences tested on Escherichia coli TOP10 (assay: shrunken log2 fold change of peptide-encoding DNA abundance (4.5 h post-induction vs induction); higher = less antimicrobial activity (less host growth inhibition)). Settings: time post-induction: 4.5 h; library: site-saturation at positions 5, 18, 19, 20.
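Further: peptides expressed intracellularly from a pBAD plasmid library in pooled LB shake-flask culture, induced with 0.3% L-arabinose, DNA abundance read by NGS, three biological replicates, DESeq2 with apeglm shrinkage.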

Row | Sequence | shrunken log2 fold change
1 | RRIRTRPPRLPRPRPRPYYTPRP | -0.336
2 | RRIRMRPPRLPRPRPRPWQHPRP | 0.0948
3 | RRIRERPPRLPRPRPRPDCSPRP | -0.148
4 | RRIRWRPPRLPRPRPRPDANPRP | 0.0696
5 | RRIRVRPPRLPRPRPRPTKPPRP | 0.172
6 | RRIRFRPPRLPRPRPRPKASPRP | 0.157
7 | RRIRARPPRLPRPRPRPKYSPRP | -0.39
8 | RRIRMRPPRLPRPRPRPYLKPRP | -0.00107
9 | RRIRHRPPRLPRPRPRPPRTPRP | 1.03
10 | RRIRFRPPRLPRPRPRPYQRPRP | -0.238
11 | RRIRFRPPRLPRPRPRPTTVPRP | -0.132
12 | RRIRVRPPRLPRPRPRPSGNPRP | -0.225
13 | RRIRTRPPRLPRPRPRPQFVPRP | -0.127
14 | RRIRGRPPRLPRPRPRPTVSPRP | 0.731
15 | RRIRWRPPRLPRPRPRPRSFPRP | -0.00655
16 | RRIRQRPPRLPRPRPRPGITPRP | -0.103
17 | RRIRKRPPRLPRPRPRPSKCPRP | -0.388
18 | RRIRMRPPRLPRPRPRPALWPRP | 0.858
19 | RRIRLRPPRLPRPRPRPQYVPRP | 0.0564
20 | RRIRWRPPRLPRPRPRPMWHPRP | -0.139
21 | RRIRGRPPRLPRPRPRPAPQPRP | 1.15
22 | RRIRVRPPRLPRPRPRPYNEPRP | -0.429
23 | RRIRLRPPRLPRPRPRPVRFPRP | 1.26

Row | Sequence | shrunken log2 fold change
24 | RRIRHRPPRLPRPRPRPINCPRP | 0.00172
25 | RRIRSRPPRLPRPRPRPLWDPRP | -0.134
26 | RRIRTRPPRLPRPRPRPFTLPRP | -0.312
27 | RRIRGRPPRLPRPRPRPKVFPRP | -0.00639
28 | RRIRARPPRLPRPRPRPEQRPRP | 0.2
29 | RRIRMRPPRLPRPRPRPNCWPRP | 0.755
30 | RRIRGRPPRLPRPRPRPLHFPRP | 0.339
31 | RRIRQRPPRLPRPRPRPEQAPRP | 0.378
32 | RRIRLRPPRLPRPRPRPYEKPRP | -0.159
33 | RRIRKRPPRLPRPRPRPERRPRP | 0.337
34 | RRIRCRPPRLPRPRPRPIKCPRP | -0.165
35 | RRIRWRPPRLPRPRPRPFKKPRP | 0.149
36 | RRIRARPPRLPRPRPRPWDEPRP | 0.379
37 | RRIRKRPPRLPRPRPRPPLRPRP | 0.708
38 | RRIRYRPPRLPRPRPRPRHDPRP | -0.237
39 | RRIRKRPPRLPRPRPRPNHSPRP | -0.321
40 | RRIRVRPPRLPRPRPRPKMVPRP | -0.109
41 | RRIRTRPPRLPRPRPRPCLKPRP | -0.0017
42 | RRIRPRPPRLPRPRPRPHASPRP | -0.192
43 | RRIRYRPPRLPRPRPRPQSIPRP | -0.0346
44 | RRIRSRPPRLPRPRPRPFKDPRP | -0.11
45 | RRIRERPPRLPRPRPRPKAIPRP | -0.0487
46 | RRIRHRPPRLPRPRPRPYYWPRP | -0.0132

Row | Sequence | shrunken log2 fold change
47 | RRIRDRPPRLPRPRPRPLKDPRP | -0.225
48 | RRIRGRPPRLPRPRPRPMQMPRP | 1.5
49 | RRIRARPPRLPRPRPRPDRNPRP | -0.066
50 | RRIRIRPPRLPRPRPRPRDNPRP | -0.348
51 | RRIRIRPPRLPRPRPRPQDPPRP | -0.235
52 | RRIRQRPPRLPRPRPRPDGSPRP | -0.0176
53 | RRIRMRPPRLPRPRPRPSSYPRP | 0.236
54 | RRIRMRPPRLPRPRPRPYWEPRP | -0.0124
55 | RRIRCRPPRLPRPRPRPCYCPRP | -0.399
56 | RRIRNRPPRLPRPRPRPPPQPRP | 0.931
57 | RRIRDRPPRLPRPRPRPYMCPRP | -0.0331
58 | RRIRRRPPRLPRPRPRPWDNPRP | 0.0234
59 | RRIRARPPRLPRPRPRPSDVPRP | 0.162
60 | RRIRFRPPRLPRPRPRPIAMPRP | 0.091
61 | RRIRARPPRLPRPRPRPDFDPRP | 1.07
62 | RRIRHRPPRLPRPRPRPRHKPRP | -0.556
63 | RRIRGRPPRLPRPRPRPCYKPRP | -0.295
64 | RRIRYRPPRLPRPRPRPNNRPRP | -0.00509
65 | RRIRERPPRLPRPRPRPTHSPRP | -0.335
66 | RRIRMRPPRLPRPRPRPIHWPRP | -0.257
67 | RRIRMRPPRLPRPRPRPYNIPRP | -0.358
68 | RRIRLRPPRLPRPRPRPSCVPRP | -0.0228
69 | RRIRPRPPRLPRPRPRPDGHPRP | 0.0433

Row | Sequence | shrunken log2 fold change
70 | RRIRGRPPRLPRPRPRPWERPRP | 0.0531
71 | RRIRCRPPRLPRPRPRPTKTPRP | 0.137
72 | RRIRRRPPRLPRPRPRPRNLPRP | -0.0397
73 | RRIRTRPPRLPRPRPRPHGCPRP | 0.14
74 | RRIRIRPPRLPRPRPRPACWPRP | 0.222
75 | RRIRGRPPRLPRPRPRPPREPRP | 1.3
76 | RRIRGRPPRLPRPRPRPTQQPRP | 0.94
77 | RRIRIRPPRLPRPRPRPGVPPRP | -0.0807
78 | RRIRQRPPRLPRPRPRPDTWPRP | -0.197
79 | RRIRGRPPRLPRPRPRPLEIPRP | 0.428
80 | RRIRWRPPRLPRPRPRPAFVPRP | 0.139
81 | RRIRARPPRLPRPRPRPKPVPRP | 0.882
82 | RRIRIRPPRLPRPRPRPASYPRP | -0.0337
83 | RRIRARPPRLPRPRPRPEPSPRP | 1.22
84 | RRIRERPPRLPRPRPRPRQYPRP | -0.369
85 | RRIRERPPRLPRPRPRPWRQPRP | -0.00951
86 | RRIRFRPPRLPRPRPRPQQWPRP | -0.208
87 | RRIRPRPPRLPRPRPRPNANPRP | 0.0132
88 | RRIRPRPPRLPRPRPRPFPWPRP | -0.0429
89 | RRIRPRPPRLPRPRPRPPHVPRP | 0.782
90 | RRIRLRPPRLPRPRPRPMKRPRP | -0.0358
91 | RRIRYRPPRLPRPRPRPSSCPRP | -0.101
